# Results from the supplement of paper PMC10567573.
# B1: SERPINB5 (parent)
# chain: FPESETKECPFRVNKVCGAACSSK
# B2: TRIM43 (parent)
# chain: YQEIFQQLQRSWVKMDQKSKHLKE
# Variants of: B1
# Test: protein stability index of a GFP-peptide fusion (GPS, HEK-293T) (PSI 1-6); higher = more stable
# Conditions: c terminus: a fixed tail appended
# 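Note: lentivirally expressed fusions sorted by FACS into six bins by GFP to DsRed ratio, PSI derived from sequencing read proportions per bin multiplied by bin number.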
row,Variant,protein stability index
1,FPESETKECTFRVNKVCGAACSSK,3.67
2,FPESETKECHFRVNKVCGAACSSK,3.62
3,FPESETKECAFRVNKVCGAACSSK,2.95
4,FPESETKECRFRVNKVCGAACSSK,3.63
5,FPESETKECIFRVNKVCGAACSSK,2.53
6,FPESETKECGFRVNKVCGAACSSK,4.1
7,FPESETKECNFRVNKVCGAACSSK,4.02
8,RPESETKECPFRVNKVCGAACSSK,4.65
9,MPESETKECPFRVNKVCGAACSSK,4.85
10,NPESETKECPFRVNKVCGAACSSK,4.61
11,IPESETKECPFRVNKVCGAACSSK,4.67
12,GPESETKECPFRVNKVCGAACSSK,4.7
13,FPESETKECPFRVNKVCGPACSSK,2.08
14,FPESETKECPFRVNKVCGGACSSK,2.81
15,FPESETKECPFRVNKVCGIACSSK,2.63
16,FPESETKECPFRVNKVCGRACSSK,2.52
17,FPESETKACPFRVNKVCGAACSSK,2.25
18,FPESETKVCPFRVNKVCGAACSSK,2.59
19,FPESETKRCPFRVNKVCGAACSSK,1.82
20,FPESETKQCPFRVNKVCGAACSSK,1.98
21,FPESETKGCPFRVNKVCGAACSSK,1.9
22,FPESETKECPFRVNKVCGANCSSK,3.18
23,FPESETKECPFRVNKVCGAKCSSK,2.26
24,FPESETKECPFRVNKVCGACCSSK,2.17

row,Variant,protein stability index
1,FPESETKECPFRVNKVCGAPCSSK,2.49
2,FPESETKECPFRVNKVCGAYCSSK,2.27
3,FPESETKECPFRVNKVCGATCSSK,3.22
4,FPESETKECPFRVNKVCGADCSSK,2.69
5,FPESETKECPFRVNKVCGARCSSK,2.53
6,FPESETKECPFRVNKVCGALCSSK,2.79
7,FPELETKECPFRVNKVCGAACSSK,2.35
8,FPETETKECPFRVNKVCGAACSSK,3.34
9,FPEQETKECPFRVNKVCGAACSSK,3.83
10,FPEAETKECPFRVNKVCGAACSSK,2.46
11,FPEPETKECPFRVNKVCGAACSSK,3.49
12,FPEWETKECPFRVNKVCGAACSSK,2.03
13,FPEIETKECPFRVNKVCGAACSSK,2.72
14,FPERETKECPFRVNKVCGAACSSK,2.76
15,FPEDETKECPFRVNKVCGAACSSK,4.14
16,FPESETKECPFRVSKVCGAACSSK,2.45
17,FPESETKECPFRVKKVCGAACSSK,2.07
18,FPESETKECPFRVPKVCGAACSSK,2.47
19,FPESETKECPFRVFKVCGAACSSK,2.15
20,FPESETKECPFRVLKVCGAACSSK,2.35
21,FPESETKECPFRVMKVCGAACSSK,2.98
22,FPESETKECPFRVEKVCGAACSSK,3.29
23,FPESETKECPFRVDKVCGAACSSK,3.17
24,FPESETKECPFRVRKVCGAACSSK,2.17

row,Variant,protein stability index
1,FPESETKECPFRVNKVCGAACSSA,2.42
2,FPESETKECPFRVNKVCGAACSSM,2
3,FPESETKECPFRVNKVCGAACSSD,2.94
4,FPESETKECPFRVNKVCGAACSSN,1.89
5,FPESETKECPFRVNKVCGAACSSQ,2.45
6,FPESETKECPFRVNKVCGAACSSI,1.88
7,FPESETKECPFRVNKVCGAACSSV,2.17
8,FPESETKECPFRVNKVCGAACSSR,2.05
9,FPESETKECPFRVNKVCGAACSSW,1.46
10,FPESETKECPFRVNMVCGAACSSK,2.38
11,FPESETKECPFRVNQVCGAACSSK,2.52
12,FPESETKECPFRVNCVCGAACSSK,3.04
13,FPESETKECPFRVNPVCGAACSSK,2.58
14,FPESETKECPFRVNWVCGAACSSK,1.32
15,FPESETKECPFRVNNVCGAACSSK,2.24
16,FPESETKECPFRVNRVCGAACSSK,2.76
17,FPESETRECPFRVNKVCGAACSSK,2.88
18,FPESETWECPFRVNKVCGAACSSK,1.34
19,FPESETIECPFRVNKVCGAACSSK,2.55
20,FPESETYECPFRVNKVCGAACSSK,1.97
21,FPESETLECPFRVNKVCGAACSSK,2.5
22,FPESETVECPFRVNKVCGAACSSK,2.53
23,FPESETCECPFRVNKVCGAACSSK,3.21
24,FPESETSECPFRVNKVCGAACSSK,2.69

row,Variant,protein stability index
1,FPLSETKECPFRVNKVCGAACSSK,1.43
2,FPISETKECPFRVNKVCGAACSSK,1.86
3,FPQSETKECPFRVNKVCGAACSSK,1.75
4,FPYSETKECPFRVNKVCGAACSSK,1.53
5,FPMSETKECPFRVNKVCGAACSSK,1.45
6,FPNSETKECPFRVNKVCGAACSSK,2.4
7,FPPSETKECPFRVNKVCGAACSSK,2.15
8,FPASETKECPFRVNKVCGAACSSK,1.42
9,FPDSETKECPFRVNKVCGAACSSK,2.42
10,FPHSETKECPFRVNKVCGAACSSK,1.55
11,FPESETKECPFEVNKVCGAACSSK,4.59
12,FPESETKECPFIVNKVCGAACSSK,2.57
13,FPESETKECPFNVNKVCGAACSSK,3.66
14,FPESETKECPFYVNKVCGAACSSK,3.43
15,FPESETKECPFRVNKVCQAACSSK,2.66
16,FPESETKECPFRVNKVCRAACSSK,2.43
17,FPESETKECPFRVNKVCVAACSSK,1.75
18,FPESETKECPFRVNKVCYAACSSK,2.09
19,FPESETKECPFRVNKVCLAACSSK,2.05
20,FPESETKECPFRVNKVCCAACSSK,2.54
21,FPESETKECPFRVNKVCPAACSSK,2.42
22,FPESETKECPFRVNKVCIAACSSK,2.1
23,FPESEMKECPFRVNKVCGAACSSK,2.63
24,FPESELKECPFRVNKVCGAACSSK,2.1

row,Variant,protein stability index
1,FPESEWKECPFRVNKVCGAACSSK,2.65
2,FPESEHKECPFRVNKVCGAACSSK,2.56
3,FPESECKECPFRVNKVCGAACSSK,2.38
4,FPESEIKECPFRVNKVCGAACSSK,2.82
5,FPESEVKECPFRVNKVCGAACSSK,3.18
6,FPESEPKECPFRVNKVCGAACSSK,2.91
7,FKESETKECPFRVNKVCGAACSSK,4.63
8,FCESETKECPFRVNKVCGAACSSK,2.31
9,FWESETKECPFRVNKVCGAACSSK,3.64
10,FMESETKECPFRVNKVCGAACSSK,3.77
11,FLESETKECPFRVNKVCGAACSSK,3.57
12,FPESETKECPFRVNKVCGAACSYK,2.29
13,FPESETKECPFRVNKVCGAACSIK,2.26
14,FPESETKECPFRVNKVCGAACSLK,2.4
15,FPESETKECPFRVNKVCGAACSFK,2.23
16,FPESETKECPFRVNKVCGAACSRK,2.02
17,FPESETKECPFRVNKVCGAACSKK,2.97
18,FPESETKECPFRNNKVCGAACSSK,3.71
19,FPESETKECPFRGNKVCGAACSSK,3.81
20,FPESETKECPFRKNKVCGAACSSK,3.93
21,FPESETKECPFRLNKVCGAACSSK,3.19
22,FPESETKECPFRANKVCGAACSSK,3.14
23,FPESETKECPFRSNKVCGAACSSK,3.66
24,FPESETKECPFRRNKVCGAACSSK,3.59

row,Variant,protein stability index
1,FPESETKECPFRFNKVCGAACSSK,2.59
2,FPESETKECPFRVNKVSGAACSSK,3.13
3,FPESETKECPFRVNKVPGAACSSK,2.29
4,FPESETKECPFRVNKVLGAACSSK,2.47
5,FPESETKECPFRVNKVMGAACSSK,2.49
6,FPESETKECPFRVNKVQGAACSSK,2.4
7,FPESETKECPFRVNKVTGAACSSK,2.68
8,FPESETKECPFRVNKVRGAACSSK,2.48
9,FPESETKECPFRVNKVGGAACSSK,2.91
10,FPESETKECPFRVNKVNGAACSSK,2.99
11,FPESETKECPFRVNKICGAACSSK,2.04
12,FPESETKECPFRVNKPCGAACSSK,2.11
13,FPESETKECPFRVNKCCGAACSSK,2.24
14,FPESETKECPFRVNKLCGAACSSK,1.86
15,FPESETKECPFRVNKHCGAACSSK,2.17
16,FPESETKECPFRVNKVCGAAQSSK,2.22
17,FPESETKECPFRVNKVCGAAYSSK,2.51
18,FPESETKECPFRVNKVCGAAISSK,2.04
19,FPESETKECPFRVNKVCGAALSSK,2.2
20,FPESETKECPFRVNKVCGAAWSSK,1.38
21,FPESETKECPFRVNKVCGAAHSSK,2.44
22,FPESETKEMPFRVNKVCGAACSSK,3.81
23,FPESETKEWPFRVNKVCGAACSSK,2.07
24,FPESETKEVPFRVNKVCGAACSSK,4.4

row,Variant,protein stability index
1,FPESETKEEPFRVNKVCGAACSSK,4.84
2,FPESETKEIPFRVNKVCGAACSSK,4.39
3,FPESETKELPFRVNKVCGAACSSK,3.6
4,FPESETKECPFRVNKVCGAACCSK,2.27
5,FPESETKECPFRVNKVCGAACYSK,2.46
6,FPESETKECPFRVNKVCGAACVSK,2.1
7,FPESETKECPFRVNKVCGAACESK,2.57
8,FPESETKECPFRVNKVCGAACKSK,2.39
9,FPESETKECPFRVNKVCGAACDSK,2.66
10,FPESETKECPFRVNKVCGAACNSK,2.62
11,FPESETKECPFRVNKVCGAACWSK,2.03
12,FPESETKECPFRVNKVCGAACRSK,2.36
13,FPESETKECPKRVNKVCGAACSSK,5.11
14,FPESETKECPWRVNKVCGAACSSK,2.16
15,FPESETKECPERVNKVCGAACSSK,4.43
16,FPESETKECPCRVNKVCGAACSSK,3.71
17,FPESETKECPMRVNKVCGAACSSK,4.48
18,FPESETKECPYRVNKVCGAACSSK,2.99
19,FPESETKECPPRVNKVCGAACSSK,4.96
20,FPESETKECPARVNKVCGAACSSK,4.43
21,FPESETKECPGRVNKVCGAACSSK,2.87
22,FPESETKECPSRVNKVCGAACSSK,5.28

# Variants of: B2
# Test: as above
# Conditions: c terminus: a fixed tail appended
row,Variant,protein stability index
1,EQEIFQQLQRSWVKMDQKSKHLKE,4.08
2,HQEIFQQLQRSWVKMDQKSKHLKE,3.7
3,GQEIFQQLQRSWVKMDQKSKHLKE,3.82
4,VQEIFQQLQRSWVKMDQKSKHLKE,1.29
5,AQEIFQQLQRSWVKMDQKSKHLKE,1.86
6,MQEIFQQLQRSWVKMDQKSKHLKE,1.99
7,FQEIFQQLQRSWVKMDQKSKHLKE,1.58
8,RQEIFQQLQRSWVKMDQKSKHLKE,2.96
9,CQEIFQQLQRSWVKMDQKSKHLKE,1.56
10,LQEIFQQLQRSWVKMDQKSKHLKE,1.5
11,TQEIFQQLQRSWVKMDQKSKHLKE,2.88
12,QQEIFQQLQRSWVKMDQKSKHLKE,3.35
13,NQEIFQQLQRSWVKMDQKSKHLKE,3.73
14,PQEIFQQLQRSWVKMDQKSKHLKE,3.04
15,WQEIFQQLQRSWVKMDQKSKHLKE,3.04
16,KQEIFQQLQRSWVKMDQKSKHLKE,3.46
17,DQEIFQQLQRSWVKMDQKSKHLKE,4.53
18,IQEIFQQLQRSWVKMDQKSKHLKE,2.04
19,SQEIFQQLQRSWVKMDQKSKHLKE,3.7
20,YCEIFQQLQRSWVKMDQKSKHLKE,2.36
21,YAEIFQQLQRSWVKMDQKSKHLKE,1.84
22,YDEIFQQLQRSWVKMDQKSKHLKE,2.64
